In article doi:10.1101/2022.08.30.505748 (bioRxiv, 2022):
Changes are numbered by the printed parent chain. Names and notes keep the numbering of the source. Where two headings read alike, the source gives them in different places.

What was measured:
[1] = molecular target: activated caspase-3 (WT), His6-tagged, RED-tris-NTA labelled (UniProt P42574); assay: MST
[2] = molecular target: activated caspase-9, His6-tagged, RED-tris-NTA labelled (UniProt P55211); assay: MST
[3] = molecular target: activated caspase-7, His6-tagged, RED-tris-NTA labelled (UniProt P55210); assay: MST
[4] = molecular target: BIRC6 (Baculoviral IAP repeat-containing protein 6), full-length, wild-type, tag removed (UniProt Q9NR09); assay: cryo-EM structure; settings: remark: other sources report otherwise
[5] = molecular target: BIRC6 (Baculoviral IAP repeat-containing protein 6), full-length, wild-type, tag removed (UniProt Q9NR09); assay: SEC-MALS; settings: remark: other sources report otherwise
[6] = molecular target: BIRC6 (Baculoviral IAP repeat-containing protein 6), full-length, wild-type, tag removed (UniProt Q9NR09); assay: cryo-EM structure; settings: remark: other sources report otherwise; remark: listed apart in the source
[7] = molecular target: Alexa555-SMAC (WT), a.a. 56-239 with a C-terminal cysteine (UniProt Q9NR28); assay: fluorescence polarisation
[8] = molecular target: T1, BIRC6 (Baculoviral IAP repeat-containing protein 6), full-length, wild-type, tag removed (UniProt Q9NR09 1-4857); assay: fluorescence polarisation
[9] = molecular target: the molecule itself; assay: cryo-EM structure
[10] = molecular target: T1, BIRC6 (Baculoviral IAP …); assay: fluorescence polarisation; remark: listed apart in the source

T1 sequence (Q9NR09 whole entry): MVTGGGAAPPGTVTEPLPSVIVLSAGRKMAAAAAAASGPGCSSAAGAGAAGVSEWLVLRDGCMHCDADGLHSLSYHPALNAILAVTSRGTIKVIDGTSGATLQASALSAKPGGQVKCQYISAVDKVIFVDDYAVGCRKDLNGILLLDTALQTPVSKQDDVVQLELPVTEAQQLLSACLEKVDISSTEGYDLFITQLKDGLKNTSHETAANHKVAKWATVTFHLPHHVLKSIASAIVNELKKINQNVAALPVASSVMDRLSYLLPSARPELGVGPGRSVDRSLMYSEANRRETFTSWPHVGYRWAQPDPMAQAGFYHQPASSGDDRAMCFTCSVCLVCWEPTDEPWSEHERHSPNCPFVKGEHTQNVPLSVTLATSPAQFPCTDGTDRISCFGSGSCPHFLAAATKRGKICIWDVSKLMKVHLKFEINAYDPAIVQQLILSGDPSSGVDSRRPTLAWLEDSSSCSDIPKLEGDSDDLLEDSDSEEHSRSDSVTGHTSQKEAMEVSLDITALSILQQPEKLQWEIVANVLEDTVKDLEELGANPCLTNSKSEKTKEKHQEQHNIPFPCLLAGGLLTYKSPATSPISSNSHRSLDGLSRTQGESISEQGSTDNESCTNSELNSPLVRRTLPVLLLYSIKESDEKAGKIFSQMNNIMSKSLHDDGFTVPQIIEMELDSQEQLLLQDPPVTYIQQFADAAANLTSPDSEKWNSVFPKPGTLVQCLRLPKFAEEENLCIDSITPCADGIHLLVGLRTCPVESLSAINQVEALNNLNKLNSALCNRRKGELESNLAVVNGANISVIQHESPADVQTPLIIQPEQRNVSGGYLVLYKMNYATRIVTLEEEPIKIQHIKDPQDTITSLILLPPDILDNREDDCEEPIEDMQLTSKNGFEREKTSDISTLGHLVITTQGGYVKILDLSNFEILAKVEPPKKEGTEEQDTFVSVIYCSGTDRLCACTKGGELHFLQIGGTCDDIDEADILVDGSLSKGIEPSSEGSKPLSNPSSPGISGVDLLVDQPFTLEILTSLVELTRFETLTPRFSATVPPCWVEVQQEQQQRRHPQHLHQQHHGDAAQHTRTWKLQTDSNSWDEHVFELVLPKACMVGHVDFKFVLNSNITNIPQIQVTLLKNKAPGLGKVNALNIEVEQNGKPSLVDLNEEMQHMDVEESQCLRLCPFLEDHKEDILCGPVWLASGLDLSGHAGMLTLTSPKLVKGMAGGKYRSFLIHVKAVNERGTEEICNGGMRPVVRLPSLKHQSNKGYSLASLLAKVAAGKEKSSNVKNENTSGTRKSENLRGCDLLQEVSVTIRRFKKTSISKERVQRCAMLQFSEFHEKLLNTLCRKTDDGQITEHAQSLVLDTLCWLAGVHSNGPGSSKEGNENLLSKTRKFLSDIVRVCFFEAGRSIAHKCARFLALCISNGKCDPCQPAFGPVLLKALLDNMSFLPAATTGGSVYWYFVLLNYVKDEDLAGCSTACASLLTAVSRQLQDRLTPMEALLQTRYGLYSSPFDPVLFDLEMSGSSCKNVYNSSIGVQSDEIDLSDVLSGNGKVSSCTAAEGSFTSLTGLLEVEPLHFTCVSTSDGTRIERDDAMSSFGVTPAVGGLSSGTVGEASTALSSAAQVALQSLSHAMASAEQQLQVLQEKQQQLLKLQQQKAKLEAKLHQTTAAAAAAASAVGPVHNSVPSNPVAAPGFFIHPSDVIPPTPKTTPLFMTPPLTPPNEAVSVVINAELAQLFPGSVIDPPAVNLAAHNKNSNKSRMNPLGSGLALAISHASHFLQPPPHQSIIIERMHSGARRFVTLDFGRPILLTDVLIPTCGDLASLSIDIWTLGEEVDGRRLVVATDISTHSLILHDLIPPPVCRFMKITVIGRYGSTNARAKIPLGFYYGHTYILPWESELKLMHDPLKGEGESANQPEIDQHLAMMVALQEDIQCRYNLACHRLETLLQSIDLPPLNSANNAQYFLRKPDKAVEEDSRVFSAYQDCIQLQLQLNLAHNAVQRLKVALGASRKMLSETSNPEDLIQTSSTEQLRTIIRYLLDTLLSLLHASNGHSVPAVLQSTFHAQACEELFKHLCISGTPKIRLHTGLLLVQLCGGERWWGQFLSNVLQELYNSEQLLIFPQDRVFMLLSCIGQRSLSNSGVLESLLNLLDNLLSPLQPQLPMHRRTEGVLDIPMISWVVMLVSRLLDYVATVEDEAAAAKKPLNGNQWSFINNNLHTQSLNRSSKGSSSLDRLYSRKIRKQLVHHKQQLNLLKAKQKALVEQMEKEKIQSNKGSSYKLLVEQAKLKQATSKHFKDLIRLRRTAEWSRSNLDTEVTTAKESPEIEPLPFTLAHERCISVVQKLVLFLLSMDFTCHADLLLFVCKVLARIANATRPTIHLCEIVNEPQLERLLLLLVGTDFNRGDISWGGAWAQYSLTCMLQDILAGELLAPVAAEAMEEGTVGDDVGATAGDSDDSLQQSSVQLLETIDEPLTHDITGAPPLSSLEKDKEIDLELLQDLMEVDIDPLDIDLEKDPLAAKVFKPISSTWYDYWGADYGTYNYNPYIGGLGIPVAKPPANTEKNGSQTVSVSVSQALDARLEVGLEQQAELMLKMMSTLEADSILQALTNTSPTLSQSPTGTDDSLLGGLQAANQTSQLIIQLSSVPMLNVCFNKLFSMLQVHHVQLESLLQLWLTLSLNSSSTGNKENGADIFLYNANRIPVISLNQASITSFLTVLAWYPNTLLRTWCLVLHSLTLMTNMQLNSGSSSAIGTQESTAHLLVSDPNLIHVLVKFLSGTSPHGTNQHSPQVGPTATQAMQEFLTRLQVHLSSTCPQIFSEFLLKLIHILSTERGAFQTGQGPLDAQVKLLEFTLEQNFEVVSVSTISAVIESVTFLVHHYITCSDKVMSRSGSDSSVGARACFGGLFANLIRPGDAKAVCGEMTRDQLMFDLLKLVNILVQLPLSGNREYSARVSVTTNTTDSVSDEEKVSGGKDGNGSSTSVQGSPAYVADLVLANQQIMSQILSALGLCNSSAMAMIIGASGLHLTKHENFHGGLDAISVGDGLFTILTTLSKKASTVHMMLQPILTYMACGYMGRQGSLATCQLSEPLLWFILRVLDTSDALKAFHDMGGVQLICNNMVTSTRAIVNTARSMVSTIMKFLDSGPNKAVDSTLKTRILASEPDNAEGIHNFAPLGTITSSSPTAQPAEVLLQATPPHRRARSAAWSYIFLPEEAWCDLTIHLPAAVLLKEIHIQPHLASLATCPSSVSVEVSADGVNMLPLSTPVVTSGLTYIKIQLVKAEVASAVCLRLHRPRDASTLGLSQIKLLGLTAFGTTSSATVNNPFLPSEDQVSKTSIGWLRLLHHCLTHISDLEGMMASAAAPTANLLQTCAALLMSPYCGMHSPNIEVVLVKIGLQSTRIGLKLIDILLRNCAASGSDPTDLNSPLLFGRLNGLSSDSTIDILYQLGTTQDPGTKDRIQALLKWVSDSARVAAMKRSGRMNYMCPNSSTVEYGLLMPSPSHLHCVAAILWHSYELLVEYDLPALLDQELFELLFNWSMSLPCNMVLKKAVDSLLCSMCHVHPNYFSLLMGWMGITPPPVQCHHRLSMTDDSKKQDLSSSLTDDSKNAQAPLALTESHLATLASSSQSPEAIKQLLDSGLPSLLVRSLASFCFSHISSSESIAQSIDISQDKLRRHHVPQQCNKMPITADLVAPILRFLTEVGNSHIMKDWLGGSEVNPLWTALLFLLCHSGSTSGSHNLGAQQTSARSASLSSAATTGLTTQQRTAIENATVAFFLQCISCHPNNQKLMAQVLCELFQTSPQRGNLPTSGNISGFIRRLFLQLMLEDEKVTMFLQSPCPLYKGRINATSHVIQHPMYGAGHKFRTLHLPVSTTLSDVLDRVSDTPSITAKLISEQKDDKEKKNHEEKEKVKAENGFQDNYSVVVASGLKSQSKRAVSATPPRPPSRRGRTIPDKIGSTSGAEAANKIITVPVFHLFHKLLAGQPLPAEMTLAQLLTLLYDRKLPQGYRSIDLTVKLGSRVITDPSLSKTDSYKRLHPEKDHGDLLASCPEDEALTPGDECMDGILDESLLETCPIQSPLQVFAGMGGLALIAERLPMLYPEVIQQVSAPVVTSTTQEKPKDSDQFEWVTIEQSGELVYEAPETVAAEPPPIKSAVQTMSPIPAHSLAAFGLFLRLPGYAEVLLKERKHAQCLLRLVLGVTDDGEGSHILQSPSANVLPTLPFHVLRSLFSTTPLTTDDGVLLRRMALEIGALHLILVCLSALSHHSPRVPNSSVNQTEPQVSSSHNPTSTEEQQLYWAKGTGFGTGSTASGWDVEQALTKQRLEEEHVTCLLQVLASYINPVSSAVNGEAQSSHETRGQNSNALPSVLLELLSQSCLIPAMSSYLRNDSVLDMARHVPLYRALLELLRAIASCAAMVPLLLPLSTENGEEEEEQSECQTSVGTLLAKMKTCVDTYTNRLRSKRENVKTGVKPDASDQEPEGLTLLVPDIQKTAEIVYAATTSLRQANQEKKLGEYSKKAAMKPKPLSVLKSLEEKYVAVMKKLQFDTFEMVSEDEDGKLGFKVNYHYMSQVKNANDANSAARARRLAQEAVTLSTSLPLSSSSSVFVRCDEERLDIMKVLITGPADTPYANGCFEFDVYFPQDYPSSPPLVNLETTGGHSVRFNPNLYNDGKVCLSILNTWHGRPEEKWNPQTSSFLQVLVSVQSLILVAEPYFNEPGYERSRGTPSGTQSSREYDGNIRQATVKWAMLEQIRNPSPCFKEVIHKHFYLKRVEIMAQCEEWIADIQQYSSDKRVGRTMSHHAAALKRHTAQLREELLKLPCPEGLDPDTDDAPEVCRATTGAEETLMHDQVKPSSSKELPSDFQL
activated caspase-3 (WT), His6-tagged, RED-tris-NTA labelled, sequence (P42574 whole entry): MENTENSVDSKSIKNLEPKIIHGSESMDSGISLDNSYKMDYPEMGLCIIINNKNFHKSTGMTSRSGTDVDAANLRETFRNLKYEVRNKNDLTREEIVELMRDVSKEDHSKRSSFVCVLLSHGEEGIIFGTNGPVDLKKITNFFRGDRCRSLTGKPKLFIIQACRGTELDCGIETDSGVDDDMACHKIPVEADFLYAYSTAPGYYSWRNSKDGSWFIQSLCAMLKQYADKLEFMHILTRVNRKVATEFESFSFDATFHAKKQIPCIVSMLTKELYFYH

Q: Which results are given for “BIRC6 (Baculoviral IAP repeat-containing protein 6), full-length, wild-type, tag removed (from UniProt Q9NR09 1-4857) (enzyme)”?
A: Kd [1]: 8.9 nM; Kd [2]: 46.4 nM; Kd [3]: 17.1 nM

Q: How did the stoichiometry N [4] turn out when “BIRC6 (Baculoviral IAP repeat-containing protein 6), full-length, wild-type, tag removed, Q9NR09 1-4857” was run?
A: Its stoichiometry N is 2.

Q: And the stoichiometry N [5]?
A: The stoichiometry N was 2.

Q: What about the stoichiometry N [6] of the same molecule?
A: The stoichiometry N was 2.

Q: And the fold greater affinity than for monomeric SMAC (V81D) [7]?
A: The fold greater affinity than for monomeric SMAC (V81D) was greater than 10 fold.

B1: SMAC (second mitochondria-derived activator of caspase), a.a. 56-239, wild-type, unlabelled (natural protein)
chain: AVPIAQKSEPHSLSSEALMRRAVSLVTDSTSTFLSQTTYALIEAITEYTKAVYTLTSLYRQYTSLLGKMNSEEEDEVWQVIIGARAEMTSKHQEYLKLETTWMTAVGLSEMAAEAAYQTGADQASITARNHIQLVKLQVEEVHQLSRKAETKLAEAQIEELRQKTQEEGEERAESEQEAYLRED
Q: How did the IC50 [8] turn out when B1 was run?
A: Its IC50 is 8.3 nM.

Q: And the Kd [8]?
A: Its Kd is roughly 0.6 nM.

Q: What about the “stoichiometry N” value [9] of the same molecule?
A: The value was 2.

B2: Alexa555-SMAC (WT), a.a. 56-239 with a C-terminal cysteine (natural protein)
chain: AVPIAQKSEPHSLSSEALMRRAVSLVTDSTSTFLSQTTYALIEAITEYTKAVYTLTSLYRQYTSLLGKMNSEEEDEVWQVIIGARAEMTSKHQEYLKLETTWMTAVGLSEMAAEAAYQTGADQASITARNHIQLVKLQVEEVHQLSRKAETKLAEAQIEELRQKTQEEGEERAESEQEAYLREDC
modifications: Alexa Fluor 555 on the C-terminal cysteine
Q: Does B2 bind [10]?
A: Result: binds

B3: Alexa 555 monomeric SMAC (V81D), a.a. 56-239 with a C-terminal cysteine (natural protein)
chain: B2 chain with V26D
modifications: Alexa Fluor 555 on the C-terminal cysteine
Q: With B3 as the molecule, how does the Kd [10] read?
A: Its Kd is 12.1 ± 1.5 nM.

Q: How did the Kd [10] turn out when AVPIAQKSEC (Cy3 on the C-terminal cysteine; C-terminal amide) [Cy3-labelled SMAC N-terminal peptide, AVPIAQKSEC(Cy3)-Am] was run?
A: The Kd was 35.6 ± 3 nM.
